Measurements as given in publication PMC4201288.

Molecular target: T1, PaFAN1 (Pseudomonas aeruginosa, UniProt Q9I2N0 1-559)
T1 sequence: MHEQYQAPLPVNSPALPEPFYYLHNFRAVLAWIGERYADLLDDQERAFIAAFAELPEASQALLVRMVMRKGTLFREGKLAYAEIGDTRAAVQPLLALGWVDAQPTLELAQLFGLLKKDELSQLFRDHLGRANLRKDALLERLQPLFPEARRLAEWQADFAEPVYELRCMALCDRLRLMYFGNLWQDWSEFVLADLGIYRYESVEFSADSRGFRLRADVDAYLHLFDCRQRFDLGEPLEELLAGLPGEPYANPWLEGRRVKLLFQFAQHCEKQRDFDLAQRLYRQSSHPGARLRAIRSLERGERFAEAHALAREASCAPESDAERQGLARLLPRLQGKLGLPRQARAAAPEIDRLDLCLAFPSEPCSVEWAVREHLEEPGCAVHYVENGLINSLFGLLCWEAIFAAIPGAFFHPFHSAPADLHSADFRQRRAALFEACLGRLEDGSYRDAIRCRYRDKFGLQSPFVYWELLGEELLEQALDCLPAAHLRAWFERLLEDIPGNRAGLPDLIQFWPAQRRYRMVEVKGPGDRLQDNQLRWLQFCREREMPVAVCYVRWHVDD
Experiment: crystal structure

B1: 5' flap DNA, 22-base template, 4-nt 5' flap (crystal I) (structured_DNA)
DNA 1: GAATGTGTGTCTCAATCCCAAC
DNA 2: GTTGGGATTG
DNA 3: AACCAGACACACATTC
B1: binds.
